Target: tKeima (tetrameric large Stokes shift red fluorescent protein Keima) (Montipora sp.)
Experiment: SEC; gel filtration on Sephacryl S-100, 10 mM Tris-HCl (pH 8.0), 200 mM NaCl

stoichiometry N: 4
Substance: tKeima (tetrameric large Stokes shift red fluorescent protein Keima)
